Laboratory results: paper PMC10623103, “A case of hyperlysinemia identified by urine newborn screening” (JIMD Reports, 2023)

Biological target: the molecule itself
Experiment: SEC; Superdex200 Increase on an AKTA FPLC after IMAC; uncut His-SUMOstar-LOR; elution compared with the expected tetrameric size and the aggregation peak

B1: 2-aminoadipic semialdehyde synthase (AASS) lysine 2-oxoglutarate reductase (LOR) domain, p.T371I variant, His-SUMOstar-LOR [residues 21-470] (domain or fragment, human, UniProt Q9UDR5 21-470, looked up)
chain: HHKAVLAVRREDVNAWERRAPLAPKHIKGITNLGYKVLIQPSNRRAIHDKDYVKAGGILQEDISEACLILGVKRPPEEKLMSRKTYAFFSHTIKAQEANMGLLDEILKQEIRLIDYEKMVDHRGVRVVAFGQWAGVAGMINILHGMGLRLLALGHHTPFMHIGMAHNYRNSSQAVQAVRDAGYEISLGLMPKSIGPLTFVFTGTGNVSKGAQAIFNELPCEYVEPHELKEVSQTGDLRKVYGTVLSRHHHLVRKTDAVYDPAEYDKHPERYISRFNTDIAPYTTCLINGIYWEQNTPRLLTRQDAQSLLAPGKFSPAGVEGCPALPHKLVAICDISADTGGSIEFMTECTIIEHPFCMYDADQHIIHDSVEGSGILMCSIDNLPAQLPIEATECFGDMLYPYVEEMILSDATQPLESQNFSPVVRDAVITSNGTLPDKYKYIQTLRESRE
notes: 2-aminoadipic semialdehyde synthase (AASS), LOR domain, residues 21-470, patient variant c.1112C>T (p.T371I); Purified as uncut SUMOstar-LOR; calculated MW of the His-SUMOstar-LOR monomer is 62.4 kD; PDB 8E8U is the wild-type LOR structure (cited); also called I371 variant; LOR variant; source: E. coli LOBSTR cells, purified (IMAC, size-exclusion chromatography on Superdex200 Increase); not …
- binding result: binds
